Measurements from US12522635B2, “Amyloid peptide variants” (Loyola Marymount University, priority 2019, dated 2026).
Where a SMILES comes first, the peptide text is derived from it. Bridges are numbered along the chain shown (N, C = ends). Where no end group is shown, it is not given here.

Assays:
[1] = biological target: T1, human IAPP (hIAPP) (Homo sapiens, UniProt P10997); assay: Thioflavin T binding assay of hIAPP aggregation when mixed with IAPP peptides; assay type: biochemical; settings: for inhibition of hIAPP aggregation, thioflavin T binding: hIAPP mixed with peptide, incubated at 37° C. with shaking; for inhibition of hIAPP aggregation (summary statement): peptide mixed with hIAPP, no single assay (thioflavin T and AFM)
T1 construct: This 37 amino acid polypeptide is co-secreted from pancreatic β-islet cells with insulin
T1 sequence (P10997 34-70 limits assumed): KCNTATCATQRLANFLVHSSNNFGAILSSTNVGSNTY
Source text: Any of a number of assays known to the art can be used to evaluate the ability of IAPP peptides to inhibit hIAPP aggregation and/or protect cells from hIAPP toxicity. Thioflavin T (ThT) binding is one such technique for identifying amyloid formation in real time. Human IAPP is known to bind thioflavin T during aggregation and amyloid formation, and upon binding to amyloid fibrils ThT will give a strong fluorescence signal at approximately 482 nm when excited at 450 nm. ThT fluorescence correlates linearly with amyloid concentration in a sample and therefore can be used to determine the amount of aggregation in a sample. This technique can therefore be used for identifying substances with amyloid-inhibiting potential when such substances are mixed with human IAPP under conditions known to result in the formation of aggregates by hIAPP. Determining the extent of aggregation can also be determined using other techniques, such as Atomic Force Microscopy (AFM), which can provide information about particle dimensions, shape, and substructure with nanometer resolution. In the foregoing assays and others that can be used by one of skill in the art, significant inhibition can be determined using a t-test by measuring the difference between hIAPP and hIAPP combined with an IAPP peptide.
To identify IAPP peptides having inhibitory potential against hIAPP aggregation, the peptides shown in FIG. 1 from a number of species (cow, degu, guinea pig, horse, pig, rat, and sheep[…]) were mixed with hIAPP at a 2:1 molar ratio of animal peptide to hIAPP and incubated under conditions known to promote hIAPP aggregation and fibril formation. IAPP alone, or hIAPP mixed with an animal IAPP, was pipetted into a glass tube and the HFIP was removed under speed-vacuum. The resulting peptide sample was dissolved in 20 mM Tris buffer pH 7.4.
37 μM human IAPP was mixed with 75 μM of each indicated animal IAPP. Aggregation was initiated by incubating samples at 37° C. with shaking at 200 rpm for 40 minutes. At indicated time points, a 17 μL aliquot of each sample was mixed with 663 μL of 50.0 μM thioflavin T in 20 mM Tris buffer (pH 7.4). Thioflavin T fluorescence emission was then recorded at 488 nm using a Hitachi F-7000 fluorescence spectrophotometer.
After 40 minutes, these samples were monitored for their ability to bind thioflavin T (see FIG. 2) and their ability to form fibrils as identified with atomic force microscopy.
Human IAPP (37 μM) was mixed with each of the indicated Weddell seal variants (at 75 μM) and incubated for 30 minutes at 37° C. with shaking at 200 rpm. The Weddell seal IAPP peptides were likewise subjected to atomic force microscopy as described in Example 2.
Human IAPP was mixed with each of the indicated raccoon variants and incubated at 37° C. with shaking.
Human IAPP was mixed with each of the indicated chicken variants and incubated at 37° C. with shaking. […] However, it was able to protect cells in MTT assays, so it is believed to inhibit formation of toxic oligomers while having a lesser effect on inhibiting the formation of fibers (which are less toxic and less able to bind ThT).
Human IAPP was mixed with each of the indicated chicken variants and incubated at 37° C. with shaking.

[2] = biological target: T1, human IAPP (hIAPP); assay: Atomic force microscopy (AFM) of hIAPP fibril formation when mixed with IAPP peptides; assay type: biochemical; settings: for inhibition of hIAPP fibril formation, AFM: 37 μM hIAPP and 75 μM peptide, 37° C. with shaking for 40 minutes
Protocol: Samples labeled with hIAPP contained 40 μM hIAPP. The sample with pramlintide and hIAPP contained a 2:1 molar mixture (80 μM Pramlintide mixed with 40 μM hIAPP). The samples with raccoon IAPP and Pramlintide alone contained 40 μM of the indicated peptides. Each sample was incubated for 40 minutes at 37° C. with shaking; conditions known to promote hIAPP amyloid formation. All scans show raw data with no flattening and are […].
Each sample contained 37 μM hIAPP and 75 μM of the indicated peptide. Samples were incubated at 37° C. with shaking for 40 minutes. All scans show raw data with no flattening and are […].
Each sample contained 37 μM hIAPP mixed with 37 μM of the indicated peptide. Samples were incubated at 37° C. with shaking for 30 minutes before depositing each sample onto freshly cleaved mica.
Samples of hIAPP with or without animal IAPP were prepared as described in Example 1 and were then incubated with shaking at 37° C. for 40 minutes. After this incubation, 17 μL of each sample was deposited onto freshly cleaved mica. Samples were incubated for 5 minutes at room temperature before washing with 200 μL sterile water. After drying, the samples were scanned using an MFP-3D atomic force microscope (Asylum Research) set on A/C mode and a 240 m silicon cantilever (Olympus).
Many of the animal IAPP variants are known to likewise form fibrils and yield amyloid-plaques when scanned via AFM. […] This is in spite of the fact that all of these IAPP peptides (except polar bear IAPP) are known to aggregate and form fibrils themselves under these or similar conditions

[3] = tested on: RIN-m cells; assay: MTT viability assay, peptide alone or mixed with hIAPP; assay type: cell-based; settings: for rescue / protection of cells from hIAPP toxicity (words): hIAPP mixed with peptide 1:1, MTT assay; for toxicity of peptide to cells: peptide alone, MTT assay, pancreatic (RIN-m) cells
Source text: Cytoprotection can likewise be measured by a number of assays known to the art. One such assay is the MTT assay, which is a colorimetric assay for assessing cell metabolic activity. NAD(P)H-dependent cellular oxidoreductase enzymes in the cytosolic compartment of a cell reduces the tetrazolium dye MTT 3-(4,5-dimethylthiazol-2-yl)-2,5-diphenyltetrazolium bromide to an insoluble form, formazan, which has a purple color. The reduction of MTT (and other tetrazolium dyes) depends on the cellular metabolic activity, so a loss of color in the course of performing an MTT assay indicates low metabolic activity, and is thus an indicator of cell damage and death.
To test cell viability, a MTT colorimetric assay measuring the conversion of yellow tetrazolium salt into purple formazan crystal catalyzed by a mitochondrial reductase was used. Cell viability studies were performed using RIN-m cells (ATCC, CRL-2057). An equal number of RIN-m cells were plated in triplicate and incubated overnight in 96-well plates. The next day, fresh RPMI-1640 with phenol red supplemented with 10% FBS was added to cells. Hexafluoroisopropanol (HFIP) was removed from each individual human and animal IAPP using a centrivap concentrator (LabOnco). All IAPP peptide samples were re-suspended in RPMI-1640 with 10% FBS. To ensure even re-suspension, each resulting IAPP-containing vial was scraped with a pipette tip six times and vortexed (Vortex Genie Mixer) for 15 seconds. The whole process, from drying each IAPP peptide to adding each IAPP peptide to the cells was uniform to ensure that each sample was incubated for an equal amount of time with each IAPP peptide. IAPP peptides were added to cells and incubated for 46 hours at 37° C. Post-incubation, the media in each well was replaced by fresh DMEM/F-12 without phenol red. MTT (3-(4,5-dimethyl-2-thiazolyl)-2,5-diphenyl-tetrazolium bromide) was added into each well and incubated at 37° C. for 2 hours. Formazan crystals, formed on the bottom of the wells, were re-suspended in solubilization buffer (20% SDS and 50% dimethylformamide). The absorbance in each well was taken at 570 nm using a Multiskan FC Microplate Photometer (Thermos Fisher Scientific). Media were obtained from ATCC. All incubations took place in a water jacketed incubator in 5% carbon dioxide at 37° C. (Shell Lab).
The MTT viability assay was used to measure cell viability of RIN-m cells upon addition of hIAPP alone, the addition of each animal IAPP peptide alone, and hIAPP mixed with each animal IAPP peptide (results shown in FIG. 5). RIN-m cells alone were used as a control and set to 100% cell viability. […] Addition of raccoon IAPP to hIAPP increased the cell viability from 55% to an average of 72% (p=0.005705). Addition of chicken IAPP variant to hIAPP increased cell viability to an average of 76% (p=0.013556).

inhibition of hIAPP aggregation, thioflavin T binding [1]	Compound	inhibition of hIAPP fiber formation ([2]; FIG. 22: 37 μM hIAPP mixed with 37 μM peptide, 37° C. with shaking for 30 minutes)	rescue / protection of cells from hIAPP toxicity (words) [3]	rescue / protection of cells from hIAPP toxicity (words) ([3]; listed as Ch-122L)	toxicity of peptide to cells [3]	inhibition of hIAPP fibril formation, AFM [2]	inhibition of hIAPP aggregation (summary statement) [1]
inhibited hIAPP aggregation	KCNTATCVTQRLANFLLRSSNNLGAILSP (Procyon lotor truncation) [R1-29]	–	rescued cells from hIAPP-induced cytotoxicity	–	–	did	–
inhibited hIAPP aggregation	KCNTATCVTQRLANFLLRSSNNLGAIL (Procyon lotor truncation) [R1-27]	–	rescued cells from hIAPP-induced cytotoxicity	–	–	did	–
inhibited hIAPP aggregation	KCNTATCATQRLANFLVRSSNNLGAILSSTNVGSNTY (Leptonychotes weddellii mutation) [WS_RL]	–	rescued cells from hIAPP toxicity	–	–	strong inhibitors of hIAPP fiber formation	–
–	KCNTATCATQRLANFLVRTSNNLGAILSPTNVGSNTY (ends and bridges not checked; cysteine pairing not given here) [dog IAPP]	–	–	–	–	significant ability to prevent fiber formation	able to inhibit such aggregation
inhibited hIAPP aggregation	KCNTATCVTQRLADFLVRSSSNIGAIY (Gallus gallus truncation) [C1-27]	–	rescued cells from hIAPP-induced cytotoxicity	–	–	did	–
–	guinea pig IAPP: naturally occurring IAPP peptide of guinea pig origin (FIG. 1) (KCNTATCATQRLTNFLVRSSHNLGAALLPTDVGSNTY; ends and bridges not checked; cysteine pairing not given here; UniProt P12966 37-73, looked up)	–	–	–	–	either had no effect on hIAPP fibril formation or appeared to promote fibrils with hIAPP	failed to inhibit the aggregation of human IAPP
inhibited hIAPP aggregation	KCNTATCATQRLANFLVHSSNNLGAILSPTNVGSNTY (KTATCATQRLANFLVHSSNNLGAILSPTNVGSNTY; Leptonychotes weddellii mutation) [WS_LP]	–	–	–	toxic to cells, with and without addition of hIAPP	strong inhibitors of hIAPP fiber formation	–
–	degu IAPP: naturally occurring IAPP peptide of degu origin (FIG. 1) (KCNTATCATQRLTNFLVRSSHNLGAALPPTKVGSNTY; ends and bridges not checked; cysteine pairing not given here; UniProt P22889 37-73, looked up)	–	–	–	–	either had no effect on hIAPP fibril formation or appeared to promote fibrils with hIAPP	failed to inhibit the aggregation of human IAPP
–	CC[C@H](C)[C@H](NC(=O)[C@H](C)NC(=O)CNC(=O)[C@H](CC(C)C)NC(=O)[C@H](CC(N)=O)NC(=O)[C@H](CC(N)=O)NC(=O)[C@H](CO)NC(=O)[C@H](CO)NC(=O)[C@H](CCCNC(=N)N)NC(=O)[C@@H](NC(=O)[C@H](CC(C)C)NC(=O)[C@H](Cc1ccccc1)NC(=O)[C@H](CC(N)=O)NC(=O)[C@H](C)NC(=O)[C@H](CC(C)C)NC(=O)[C@H](CCCNC(=N)N)NC(=O)[C@H](CCC(N)=O)NC(=O)[C@@H](NC(=O)[C@H](C)NC(=O)[C@@H]1CSSC[C@H](NC(=O)[C@@H](N)CCCCN)C(=O)N[C@@H](CC(N)=O)C(=O)N[C@@H]([C@@H](C)O)C(=O)N[C@@H](C)C(=O)N[C@@H]([C@@H](C)O)C(=O)N1)[C@@H](C)O)[C@@H](C)CC)C(=O)N[C@@H](CC(C)C)C(=O)N[C@@H](CO)C(=O)N1CCC[C@H]1C(=O)N[C@H](C(=O)N[C@@H](CC(N)=O)C(=O)N[C@H](C(=O)NCC(=O)N[C@@H](CO)C(=O)N[C@@H](CC(N)=O)C(=O)N[C@H](C(=O)N[C@@H](Cc1ccc(O)cc1)C(N)=O)[C@@H](C)O)C(C)C)[C@@H](C)O [cat IAPP] (H-KCNTATCATQRLANFLIRSSNNLGAILSPTNVGSNTY-NH2; disulfide 2-7 (inferred); N-terminus and C-terminus assumed)	–	–	–	–	significant ability to prevent fiber formation	able to inhibit such aggregation

Compound	inhibition of hIAPP aggregation, thioflavin T binding [1]	inhibition of hIAPP fiber formation ([2]; FIG. 22: 37 μM hIAPP mixed with 37 μM peptide, 37° C. with shaking for 30 minutes)	rescue / protection of cells from hIAPP toxicity (words) [3]	rescue / protection of cells from hIAPP toxicity (words) ([3]; listed as Ch-122L)	toxicity of peptide to cells [3]	inhibition of hIAPP fibril formation, AFM [2]	inhibition of hIAPP aggregation (summary statement) [1]
KCNTATCVTQRLADFLVRSSSNLGAIYSPTNVGSNTY (Gallus gallus mutation) [Ch_I22L]	inhibited hIAPP aggregation	able to inhibit hIAPP fiber formation	rescued cells from hIAPP-induced cytotoxicity	rescue cells from hIAPP toxicity	minimal inherent toxicity	–	–
